A short description of this data set: yeast display, Sf9 membrane polyspecificity reagent, FACS + sequencing; frameworks hold sequencing errors. In a few lines:
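Galactose-induced (36–48 hours) yeast carrying a synthetic nanobody display library were exposed to 10% biotinylated, detergent-solubilized Sf9 membrane reagent at 4 °C for 1 hour. FACS followed streptavidin microbead enrichment, using low and high (top ~1%) gates for expression (anti-HA) and reagent binding (streptavidin). Colony PCR, MiSeq 2 × 250 sequencing and CDR-length filtering followed. Labels for polyreactivity reflect the gate of origin.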
“QVQLVESGGGLVHAGGSLRLSCAASGSTEYNAMGWYRQSPGTQRELVAVITDSDGSTYYADSVKGRYTISRDNAKHTVYLQMNSLKREDTAVYYCAADDYAYSYGYWLTYDYWGQGPQVTVSS”: the “polyreactivity (PSR sort gate)” value is “low polyreactivity”. Under “QVQLVESGGGLVHAGGSLRLSCAASGSTFDGYTMGWYRQAPGTERELVAAITDSGGSTYYADSVKGRFTISRDKAKNTVYLQMNSQKPEDTAVYYFAAAVPELYEVRYHDDYWGQGTQVTVSS” stands “low polyreactivity”; under “QVQLVESGGGLVHAGGSLRLSCAASGSTFFLYAMGWYRQAHGKERELVAAISSDGSTYYADSVKGRFTISRDNAKHTVYLQMNSLKPEDTAVYYCAAEYTPSYYEYYYWGQGTQVTVSS”, “low polyreactivity”.

Turning to “QVQLVESGGGLVHAGGSLRLSCAASGSTFHYYAMGWYRQPPGKERELDAGITSGGGRTYADSVKGRFTISRDNAKITVYLQMNSLNPEDTAVYYCNARPSTGWTIYGVDYWGQGTQVTVSS”, the “polyreactivity (PSR sort gate)” value is given as “low polyreactivity”. The result for “QVQLVESGGGLVHAGGSLRLSCAASGSTFKYYAMGWYRQAPGKERELVAAISSGNSTYYADSVKGRFTISRDNAKNTVYLQMNSLKPEDTAVYYCAAYWRRDPMDYWGQGTQVTVSS” reads “high polyreactivity”; that for “QVQLVESGGGLVHAGGSLRLSCAASGSTFLSYAMGWYRQAPGKEREFVAAISWSDVNTYYADSVKGRFTISRDNAKNTVYLQMISLKPEDTAVYYCAAYYPSHDYSGFWSDTYEYWGQGTQVTVSS”, “low polyreactivity”. The result for “QVQLVESGGGLVHAGGSLRLSCAASGSTFNTNTMGWYRQAPGKERELVAAITKSGGSTYYADSVKGRFTISRDNAKNTVYLQMNSLKPEDTAVYYCNAYPDDSYKYLYWSDGDYWGQGTQVTVSS” reads “low polyreactivity”. The result for “QVQLVESGGGLVHAGGSLRLSCAASGSTFSWYVMGWYRQAPGKERELVAAISYRGGRTYYADSVKGRFTISRDNAKNTVYLQMNSLKPEDTAVYYCAARGVVDAGRTNRPYDYWGQGTQVTVSS” reads “low polyreactivity”. As to “QVQLVESGGGLVHAGGSLRLSCAASGSTFYSYAMGGYRQAPGKERELVAAISRSGGRTYYADSVKGRFTISRDIAKNTVYLQMKSLKPEDTAVYYCNAVNSVTTSTRTRAKYAAYDSWGQGTQVTVSS”, the “polyreactivity (PSR sort gate)” value is on record as “high polyreactivity”. Under “QVQLVESGGGLVHAGGSLRLSCAASGSTYRANSMGWYRQAPGKERELVAAITRRGGSTYYADSVKGRFTISRDNAKNTVYLQMNSLKPEDTAVYYCAAASRYGEGDYWGQGTQVTVSS” stands “high polyreactivity”; under “QVQLVESGGGLVHAGGSLRLSCAASGTTLAIYAMGWYRQAPGKERELVASISRVGSTNYADSVKGRFTISRDNAKNTVYLQRNSLKPEDTAVYYCAARRSSYVILRAYYYWGQGTQVTVSS”, “high polyreactivity”; under “QVQLVESGGGLVHAGGSLRLSCAAYGSTSLVNAMGWYRQAPGKERELVAAITRGGNTYYADSVKGRFTISRDNAKNTVYLQMNSLKPEDTAVYYCAAEDHTEQGQYDYWGQGTQVTVSS”, “low polyreactivity”.

For the sequence “QVQLVESGGGLVHAGGSLRLSCAPSGSTFDDYTMGWYRPAPGKERELVAAISSAGSTNYADSVKGRFTISRDNAKNTVYLQMNSLKPEDTAVYYCAAQVHPIRYDYWGQGTQVTVSS”, the “polyreactivity (PSR sort gate)” value is listed as “low polyreactivity”. Under “QVQLVESGGGLVHAGGSLRLSFAASGRTFQVYAMGWSRQAPGKERELVAAITSLGGTYYADSVKGRFTISRYNAKNTVYLQMNSLKPEDTAVYYCAARARSTPRKYYYTRGYWGQGTQVTVSS” stands “high polyreactivity”. The result for “QVQLVESGGGLVHAGGSLRLSSAASGRIFWYYALGWYRQPPGKERELVASIRGSGGSTYADSVKGRFTVSRENAKNTVYLPMNSLKPEDTAVYYCAASGRQRGHPMYYWRQGTQVTVSS” reads “high polyreactivity”; that for “QVQLVESGGGLVHAGGSLRLSSAASGRTFKVYAMGWYRQAPGKERELVAAITGGGSTNYADSVKGRFTISRDNAKNTVYLQMYSLKPEDTAVYYCNARYYYRLVKWSRFSSYDYWGQGTQVTVSS”, “low polyreactivity”; that for “QVQLVESGGGLVHAGGSLRLSSAPSGSTFQAYAMGWYRAAPGKERELVAAINEGDSRTYYADSVKGRFTISRDNAKNTVYLPMNSQKPEDTAVYYCAIGNFRPYDYWGQGTQVTVSS”, “low polyreactivity”.

“QVQLVESGGGLVHAGGSLRLTCAASGSTFGKYAMGWYRQAPGKERELVAAITWSGASTFYADSVKGRFTISRDNAKNTVYLQMNSMKPEDTAGYYCAARSFKSYYIFDYWGQGTQVTVSS”: the “polyreactivity (PSR sort gate)” value was “low polyreactivity”.

With “QVQLVESGGGLVHAGGSLSLSCAASGFILGVYAMGWYRQEPGKERELVAAITFTGASTYYADSVKGRFTLSRDNAKNTVYLQMNSLKPEDTAVNYCNKSSAYYRYEYWGQGTQVTVSS”, the “polyreactivity (PSR sort gate)” value is reported as “low polyreactivity”. Under “QVQLVESGGGLVHAGGSLSLSCAASGRTFRQYAMGWYRQAHGKERELVAAISKGGGSTYYADSEKGRFTISRDNAKNTVYLQMNSLKPEVKAVYYCNAPGYVLKGYDYWGQGTQVTVSS” stands “high polyreactivity”. For “QVQLVESGGGLVKAGASLRLSCAASGRTFRHNARGWYRQAPGKERELVAAITIGTNTYYADSVKGRFTISRDNAKNTVYLQMNSLKPEDTEVYYCAAVKDRYAYVPPRFDYWGQGSQVTVSS”, the “polyreactivity (PSR sort gate)” value is recorded as “low polyreactivity”.

With “QVQLVESGGGLVKAGCSLRLSCAASGRTFGTYAMGWYRQAPGKERELVAAISSGGSTYADSVKGRFTISRDNAMNTVYLQMKSLKPEDTAVYYCTTRYPMGGTYTRYPLKGDYWGQGTQVTVSS”, the “polyreactivity (PSR sort gate)” value is “high polyreactivity”. Consider “QVQLVESGGGLVKAGCSLRLTCAASARTFRWYAMGWYRQAPGKERELVATISWSSGRTRYADSVKGRFTISRDNANNTVYLQMNSLKPEETAVYYCNADQWDKSYDYWGQGSQVTVSS”, for which the “polyreactivity (PSR sort gate)” value is “high polyreactivity”. Under “QVQLVESGGGLVKAGGCLRISCAASGRIFGSYAMGWYREAPGIERELVASIRSGGRTKYADSVKGRFTISRDNAKKTVYLQMNSLKPEDTAVYYCDVPIQWDYGYWGQGTQVTVSS” stands “low polyreactivity”. The result for “QVQLVESGGGLVKAGGSIRISCAPSGRIFNQYGIGRNRQAPGKEMELVDAIRSGDSTNYADSVKGRFTISRDNAKNTFYLQMNRLKPEDTAVYFCARDRPGDYAGSDYWGQGTQVTVSS” reads “low polyreactivity”; that for “QVQLVESGGGLVKAGGSLGLSCAASGSIFGVNAMGWYRQAPGKERELVAAISKRGGTTYYADSVKGRFTISRDNAKNTVYVQRHSLKPEDTAVYYCNAPYLWNYYGGRYDYWGQGTQVTVSS”, “high polyreactivity”; that for “QVQLVESGGGLVKAGGSLRISCAASGRIFGYNAMGWYRQAPGKERELVAVISTSGTITYYADSVKGRFTISRDNAKNTVYLQMNSLKPEDTAVYYCAARYYQRANGFGYWGQGTQVTVSS”, “low polyreactivity”. In the case of “QVQLVESGGGLVKAGGSLRLICDASGRTFYSYAMGWYRQAPGKERELVAAINTSGGRTHYADSVKGRFTISRDNAKYTVYLHMNSLKAEDTAVYYCAAERKNKYDYWGQGTQVTVSS”, the “polyreactivity (PSR sort gate)” value was “high polyreactivity”.

For “QVQLVESGGGLVKAGGSLRLRCAASGSIFRYYVMGWYRQAPGKERELVAAISGGSTYYADSVKGRFTISRDNAKNTVYLQLNSLKPEDTAVYYSAARGKRRSGGENYAYGYWGQGTQVTVSS”, the “polyreactivity (PSR sort gate)” value was “high polyreactivity”. Under “QVQLVESGGGLVKAGGSLRLSCAASGFNFGGNVMGWYRQAPGKERELVAAITYSGGSTYYADSVKGRFTISRDNAKNTVYLQMNSLKPEDTAVYYCAAVQRKYYIDPAYDYWGQGTQVTVSS” stands “low polyreactivity”; under “QVQLVESGGGLVKAGGSLRLSCAASGFTFGYYTMGWYRQAPGKERELVAAISSSGGSTHYADSVKGRFTISRDNAKNTVYLQMNSLKPEDTAVYYCAARYINRYPKAQPTDRSIYYWGQGTQVTVSS”, “high polyreactivity”; under “QVQLVESGGGLVKAGGSLRLSCAASGLISAVYALGWYRQAPGKERELVAAITTSGGRTYYADSVKGRFTISRDNAKNTVYLQMNSLKPEDTAVYYCAAEHVRYLNPEFDYWGQGTQVTVSS”, “high polyreactivity”. Under “QVQLVESGGGLVKAGGSLRLSCAASGLTFYFYAMGWYRQAPGKERELVAGIRKRGGGTYYADSVKGRFTISRDNAKNTVYLQMNSLKPEDTAVYYCAKEPGWGRRSTTAYDYWGQGTQVTVSS” stands “low polyreactivity”. Under “QVQLVESGGGLVKAGGSLRLSCAASGRIFGRYAMGWYRQAPGKEREFVAAISKRGGGTYYADSVKGRFTISRDNAKNTVYLQMNSLKPEDTAVYYCAVDNSPGFDDYDYWGQGTQVTVSS” stands “high polyreactivity”; under “QVQLVESGGGLVKAGGSLRLSCAASGRIFKYYAMGWYRQAPGKERELVAAISSVGSTNYADSVKGRFTISRDNAKNTVYLQMNSLKPEDTGVYYCAAPYQHYDVNYDSWGQGTQVTVSS”, “low polyreactivity”.

Take “QVQLVESGGGLVKAGGSLRLSCAASGRIFTANAMGWYRQAPGKEREFVAAITTSDGTYYADSVKGRFTISRDNAKNTVYLQMNSLKPEDTAVYYGATDTATYPTAMDYWGQGTQVTVSS”: the “polyreactivity (PSR sort gate)” value is given as “low polyreactivity”. The result for “QVQLVESGGGLVKAGGSLRLSCAASGRIFVGYGMGWYRQAPGKERELVAAITSSGGSTYYADSVKGRFTISRDNAKNTVYLQMNILKPEDTAVYYCAAERGYHVGGSGLYDYWGQGTQVNVSS” reads “low polyreactivity”; that for “QVQLVESGGGLVKAGGSLRLSCAASGRIIEKYAMGWYRQAHGKEREFVAAIDWSGGSTYYADSVKGRFTISRDNAKNTVSLQKNSLKPEDTAVYYCAAYWYYEDGQSEARLYGYDYWGQGTQVTVSS”, “low polyreactivity”.

Turning to “QVQLVESGGGLVKAGGSLRLSCAASGRTFASYAMGWYRQAPGKERELVAVITRGGRTYYADSVKGRFTISRDNAKNTVYLQMNSLKPEDTAVYYCNAAYYSSSYLEDYWGQGTQVTVSS”, the “polyreactivity (PSR sort gate)” value is “high polyreactivity”. The result for “QVQLVESGGGLVKAGGSLRLSCAASGRTFGDNAMGWYRQAPGKERELVAAIRWGGGSTYYADSVKGRFTISRDNAKNTVYLQMNSLKPEDTAVYYCAKKGWSSHDRAWYIYDYWGQGSQVTVSS” reads “low polyreactivity”.

The values above are taken from the nanobody polyreactivity screen of Harvey et al. (2022).
